In general, EC50 refers to the midpoint of the concentration-response curve. A higher EC50 goes with lower potency in that assay. The term Kd denotes the equilibrium constant for the complex coming apart. Read a high Kd as lower affinity. By koff is commonly meant the rate constant with which the complex falls apart. Low readings indicate slow dissociation, high ones fast dissociation. What is called kon is the rate constant with which the complex forms. A higher kon goes with faster complex formation. The IC50 is the concentration that gives 50% inhibition. Higher therefore signals weaker potency.

This note sets out measurements from patent US20230416394A1.

The target of experiment [1] is human TGFβ1 (human) (UniProt P01137). Put plainly: ELISA, coated human TGFβ1. (In general: An ELISA detects its analyte on a solid surface through an enzyme-linked reagent.)
Chain of human TGFβ1 (human) (P01137 279-390 limits assumed): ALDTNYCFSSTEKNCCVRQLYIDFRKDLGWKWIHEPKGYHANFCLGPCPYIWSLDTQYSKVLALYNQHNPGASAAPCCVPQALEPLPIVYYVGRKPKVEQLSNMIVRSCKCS
The target is the same in experiment [2]. The experiment is described as follows: Octet, ES014-1 on sensor, TGFβ gradient. Background: Biolayer interferometry detects binding as a change in optical thickness at a sensor tip.
For experiment [3] the target is unchanged. The experiment is described as follows: ELISA, blocking of TGFβRII-His binding to coated TGFβ1.
Experiment [4] deals with human CD39 protein (Octet assays) (human). Put plainly: Octet, ES014-1 on sensor, CD39 protein gradient.
For another experiment, the target named is human CD39 (human) (UniProt P49961). The experiment is described as follows: cell-based or functional assay.
Chain of human CD39 (human) (P49961 whole entry): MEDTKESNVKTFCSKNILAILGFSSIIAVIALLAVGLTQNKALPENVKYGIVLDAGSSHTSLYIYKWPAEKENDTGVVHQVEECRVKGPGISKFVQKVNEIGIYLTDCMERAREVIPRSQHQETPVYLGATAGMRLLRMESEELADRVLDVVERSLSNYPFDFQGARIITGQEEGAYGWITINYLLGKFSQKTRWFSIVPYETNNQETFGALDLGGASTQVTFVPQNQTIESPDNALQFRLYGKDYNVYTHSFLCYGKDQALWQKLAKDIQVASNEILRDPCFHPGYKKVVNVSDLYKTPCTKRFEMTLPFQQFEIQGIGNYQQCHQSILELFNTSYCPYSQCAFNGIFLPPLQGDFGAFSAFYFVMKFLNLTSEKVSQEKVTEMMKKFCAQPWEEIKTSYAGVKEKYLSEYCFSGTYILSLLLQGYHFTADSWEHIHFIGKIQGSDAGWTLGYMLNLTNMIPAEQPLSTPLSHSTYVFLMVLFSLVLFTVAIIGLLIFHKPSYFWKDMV

In turn, ES014-1 (bispecific antibody) registered an EC50 with human TGFβ1 (human) [1] of 0.26 nM. Moreover, in the experiment with human TGFβ1 (human) [2], the Kd amounted to 0.037 nM, the koff came out at 0.000234 s⁻¹ and the kon worked out at 6.32e+06 M⁻¹ s⁻¹. Moreover, the IC50 with human TGFβ1 (human) [3] came out at 3.73 nM. In experiment [4], this substance gave a Kd of 0.376 nM, a koff of 3.44e-05 s⁻¹ and a kon of 91400 M⁻¹ s⁻¹. In addition, in the experiment with human CD39 (human), the IC50 to CD39 ATPase activity on MOLP-8 cells (CellTiterGlo) amounted to 1.21 nM.
